Experimental data as given in patent publication US20260061042A1, “POLYNUCLEOTIDE COMPOSITIONS AND USES THEREOF” (Pfizer Inc., priority 2024, published 2026).
Residue numbers refer to the chain shown, from its start.

B1: BMD576_PapGLD WT_DAF-GPI: monovalent PapG modRNA LNP; RNA construct SEQ ID NO: 45 (nucleic acid)
chain: AGGAGGACUGGUCGAACCUGCAUAGUGAUCAUAAGGUCAGCAUAGCCACCAUGGAGACCGACACACUGCUGCUGUGGGUGCUUUUGUUGUGGGUGCCCGGUUCUACCGGAUGGAACAACAUCGUGUUCUACAGCCUGGGCAACGUGAACAGCUACCAAGGCGGCAACGUGGUGAUCACACAGAGACCUCAGUUCAUCACAAGCUGGAGACCCGGCAUCGCCACCGUGACCUGGAAUCAGUGCAACGGCCCCGAGUUCGCCGACGGCAGCUGGGCCUACUACAGAGAGUACAUCGCCUGGGUGGUGUUCCCCAAGAAGGUGAUGACCAAGAACGGCUACCCCCUGUUCAUCGAGGUGCACAACAAGGGCAGCUGGAGCGAGGAGAACACCGGCGACAGCGACAGCUACUUCUUCCUGAAGGGCUACAAGUGGGACGAGAGAGCCUUCGACGCCGGCAACCUGUGUCAGAAGCCCGGCGAGACCACAAGACUGACCGAGAAGUUCAACGACAUCAUCUUCAAGGUGGCCCUGCCCGCCGACCUGCCCCUGGGCGACUACAGCGUGACCAUCCCCUACACAAGCGGCAUUCAGAGACACUUCGCUAGCUACCUGGGCGCUAGAUUCAAGAUCCCCUACAACGUGGCCAAGACCCUGCCUAGAGAGAACGAGAUGCUGUUCCUGUUCAAGAACAUCGGCGGCAGUUCUGGUGGCGGUGGUUCAAGUGGUAGUGGCAGUUCAAGUGGGACAACACGACUGUUGAGCGGGCAUACGUGUUUUACGCUGACAGGUCUUCUGGGCACGCUGGUUACUAUGGGCUUGCUUACGUGAUGAGCUCGCUUUCUUGCUGUCCAAUUUCUAUUAAAGGUUCCUUUGUUCCCUAAGUCCAACUACUAAACUGGGGGAUAUUAUGAAGGGCCUUGAGCAUCUGGAUUCUGCCUAAUAAAAAACAUUUAUUUUCAUUGCAAAAAAAAAAAAAAAAAAAAAAAAAAAAAAAAAAAAAAAAAAAAAAAAAAAAAAAAAAAAAAAAAAAAAAAAAAAAAAAAAA
modifications: modRNA in LNP
B2: BMD576_PapGLD K172A_DAF-GPI: monovalent PapG modRNA LNP; RNA construct SEQ ID NO: 52 (nucleic acid)
chain: B1 chain with A624G, A625C, G626C
modifications: modRNA in LNP
B3: BMD576_PapG-DSF WT_DAF-GPI: monovalent PapG modRNA LNP; RNA construct SEQ ID NO: 65 (nucleic acid)
chain: AGGAGGACUGGUCGAACCUGCAUAGUGAUCAUAAGGUCAGCAUAGCCACCAUGGAGACCGACACCCUCCUGCUGUGGGUGCUGUUACUGUGGGUGCCCGGUAGCACCGGCUGGAACAACAUCGUGUUCUACAGCCUGGGCAACGUGAACAGCUACCAAGGCGGCAACGUGGUGAUCACACAGAGACCUCAGUUCAUCACAAGCUGGAGACCCGGCAUCGCCACCGUGACCUGGAAUCAGUGCAACGGCCCCGAGUUCGCCGACGGCAGCUGGGCCUACUACAGAGAGUACAUCGCCUGGGUGGUGUUCCCCAAGAAGGUGAUGACCAAGAACGGCUACCCCCUGUUCAUCGAGGUGCACAACAAGGGCAGCUGGAGCGAGGAGAACACCGGCGACAGCGACAGCUACUUCUUCCUGAAGGGCUACAAGUGGGACGAGAGAGCCUUCGACGCCGGCAACCUGUGUCAGAAGCCGGGGGAGACCACAAGACUUACCGAGAAGUUCAACGACAUCAUCUUCAAGGUGGCCCUGCCCGCCGACCUGCCCCUGGGCGACUACAGCGUGACCAUCCCCUACACAAGCGGCAUUCAGAGACACUUCGCUAGCUACCUGGGCGCUAGAUUCAAGAUCCCCUACAACGUGGCCAAGACCCUGCCUAGAGAGAACGAGAUGCUGUUCCUGUUCAAGAACAUCGGCGGCUGCAGACCUAGCGCUCAGAGCCUGGAGAUCAAGCACGGCGACCUGAGCAUCAACAGCGCCAACAACCACUACGCCGCUCAGACCCUGAGCGUGAGCUGCGACGUGCCCGCCAACAUCAGAUUCAUGCUGCUGAGAUCAACCACCCCCACCUACAGCCACGGCAAGAAGUUCAGCGUGGGCCUGGGCCACGGCUGGGACAGCAUCGUGAGCGUGAACGGCGUGGACACGGGCGAGACCACUAUGCGUUGGUACAAGGCCGGCACACAGAGCCUGACCAUCGGCAGCAGACUGUAUGGCGAAAGCUCCAAAAUCCAACCCGGCGUGCUGUCGGGGAGCGCCACCCUGCUGAUGAUACUGCCCGGAGGCAGCAGCGGCGGCGCCGACGUGCAGAUCAACAUCAGAGGCAACGUGUAUAUUCCGCCUAGCAGUGGUGGUGGGGGUAGCUCCGGCUCCGGAAGCAGCUGCGAGGGCAUCAGCCUGCUGGCUCAGAACACAAGCUGGCUGCUGCUGCUGCUGCUGAGCCUGAGCCUGCUGCAAGCCACCGACUUCAUGAGCCUGUGAUGAGCUCGCUUUCUUGCUGUCCAAUUUCUAUUAAAGGUUCCUUUGUUCCCUAAGUCCAACUACUAAACUGGGGGAUAUUAUGAAGGGCCUUGAGCAUCUGGAUUCUGCCUAAUAAAAAACAUUUAUUUUCAUUGCAAAAAAAAAAAAAAAAAAAAAAAAAAAAAAAAAAAAAAAAAAAAAAAAAAAAAAAAAAAAAAAAAAAAAAAAAAAAAAAAAA
modifications: modRNA in LNP

Test system: E. coli strain CFT073 expressing the fimbrial adhesin PapG
Test: PapG hemagglutination inhibition (HAI) assay on sera of mice immunized with PapG modRNA LNPs
Format: in vivo
Settings: 1 μg, 50 μl IM, weeks 0, 4, bleed week 6, GMT of individual titers
Source text: Escherichia coli to the uroepithelium of human kidney. The PapG lectin binds to the globoside (GbO4) glycolipid, which is enriched in urinary tract tissue and consists of the tetrasacharide GalNAcβ1-3Galα1-4Galβ1-4Glc linked to ceramide. Here we present the use of a hemagglutination inhibition assay (HAI) to determine vaccine functional responses to protein subunit PapG or mRNA-expressed PapG antigens. In this assay the agglutination of human red blood cells (hRBCs) expressing GbO4 is caused by live E. coli CFT073 bacteria expressing PapG. The HAI assay measures the ability of PapG-elicited antibodies to prevent hRBC agglutination, exemplifying inhibition of the key bacterial adherence mechanism leading to clinical pyelonephritis. The assay was used to characterize the functional activity of PapG monoclonal antibodies (mAbs) raised against a PapG lectin domain subunit antigen. PapG HAI data from a mouse immunogenicity study are described that evaluated various 5 monovalent PapG modRNA LNPs and a PapG subunit comparator.
In this mouse study immunogenicity of different PapG mRNA constructs were evaluated. […]
iii. PapG Hemagglutination Inhibition Assay (HAI) 1. Preparation of Single Use Frozen E. coli CFT073 Banks Frozen bacterial stocks for use in the PapG HAI are stored at a concentration of ˜15 OD/mL. For stock preparation, take 6 ×100 μL of frozen parental strain CFT073 glycerol stock to seed six overnight cultures with ˜85 mL Luria's Broth (LB) each in 250 mL vented flasks. Flasks are shaken at 200 rpm and 37° C. overnight. On the same day, prepare 100 mL LB media with 30% glycerol and 0.4% sucrose by mixing […] 80% Glycerol with 0.8 mL 50% Sucrose in 64 mL LB and pre-chill at 4° C. After ˜16 h growth, determine the OD600 nm of each flask with the SpectraMax M5e plate reader by adding 100 μL culture to 900 μL LB (1:10 dilution). After reading the OD600, harvest cells by pelleting in a centrifuge at 4,000g, 4° C., for 30 minute. Determine the total OD of each of the six flasks, by multiplying the volume by OD/mL of each flask and divide by 15 OD to give the appropriate pellet resuspension volume. Discard supernatants and resuspend all pellets in the pre-chilled LB cryopreservant containing 30% glycerol and 0.4% sucrose, with a final volume as calculated above. Pool all resuspended pellets and mix gently, then aliquot into 1 mL/cryotube, and freeze at −70° C.
2. Preparing 10% hRBC Working Solution From Stock
Gently mix human red blood cells (hRBC) bottle (Rockland) by rocking ˜20×times, pipet out 10 mL of the hRBCs into a 15 ml conical tube. Centrifuge at 2,000 rpm(˜990×g) for 10 minutes and 4° C. Aspirate and discard the supernatant, then resuspend the pellet with 9 mL 4° C. PBS. The packed hRBCs in 15 mL conical tube should constitute roughly 1 mL of this total volume. Store these 10% hRBCs at 4° C. until use. […]
iv. PapG Hemagglutination Inhibition (HAI) Assay
The PapG hemagglutination inhibition (HAI) assay uses human red blood cells (hRBCs), which naturally express the PapG ligand GbO4 (globotetraosyl ceramide) on the cell surface, and the E. coli strain CFT073 expressing the fimbrial adhesin PapG. Upon mixing bacteria with hRBCs, […] cells remain suspended (presenting as a cloudy well), while no binding results in the red blood cells falling out of solution towards the center of the well (observed as pellet).
The total final well volume is 100 μL, with serum dilutions comprising 25 μL of this volume, strain CFT073 cells in […] volume, and hRBCs in a 50 μL volume. The assay plate is a V-bottom plate to which 25 μL 4° C. PBS is initially added to all wells. The positive control wells receive an additional 25 μL 4° C. PBS. The no-serum negative control consists of E. coli CFT073 cells plus hRBCs only (resulting agglutinated well appears cloudy). To accommodate pre-diluted sera transferred from the serum Master Dilution plate (MDP) an extra 5 μL 4° C. PBS is added to wells in Row A of the assay plate (columns 1 to 12). […]

Molecule	Step Titer GMT (HAI)
B1	94,822
B2	98,165
B3	89,753

Same assay, conditions: 1 μg, 50 μl IM, weeks 0, 4, bleed week 6, serum pool

Molecule	Step Titer Pool (HAI)
B1	81,000
B2	81,000
B3	81,000
